Data reported in patent US8895526B2, “Identification of RNAI targets and use of RNAI for rational therapy of chemotherapy-resistant leukemia and other cancers” (Cold Spring Harbor Laboratory, priority 2009, dated 2014).

Assays:
[1] = test system: immortalized murine embryonic fibroblasts (Mef); test: Pooled negative selection RNAi screening (deep sequencing); assay type: cell-based; details: deep sequencing reads, on dox compared to initial representation
Description: (§1) In addition to the analysis of single shRNAs for inhibitory effects in vitro and in vivo, the combination of tet-on competent cancer models and tet-regulatable shRNA expression vectors allowing for monitoring shRNA expression through fluorescent and other reporter genes (e.g. TRMPV and derivates) facilitates pooled shRNA negative selection screening (FIG. 37). In such approaches a pool of over 1,000 shRNAs are retrovirally transduced into tet-on competent cancer models (here MLL/AF9+Nras AML) and selected for shRNA containing cells by either drug selection (e.g. G418) or fluorescence-activated cell sorting (FACS). Selected cell populations harboring a library of shRNAs then can be cultured in the absence or presence of doxycyline (off dox and on dox, respectively) or injected into syngeneic recipient mice that are either treated with doxycyline or left untreated.
(§2) The representation of each shRNA within the pool can be effectively assessed by deep sequencing of shRNA cassettes in a given cell population. For this, genomic DNA is extracted from leukemia cells containing the shRNA pool, and the shRNA guide or passenger strand (21-22 target gene specific nucleotides of the shRNA) by PCR using primers specific for common sequences flanking the gene specific part of the shRNA (e.g. miR30 19 nt loop and miR30 common 3′ sequence). The primers also contain 5′-adapters required for deep sequencing (e.g. for Illumina/Solexa sequencing primers are p5+mir3: 5′-[…]-3′ (SEQ ID NO: 215) and p7+Loop: 5′-[…]-3′ (SEQ ID NO: 216)). Deep sequencing is subsequently performed using a primer binding the flanking nucleotide sequence next to the target gene specific part of the shRNA (for Illumina/Solexa platforms the primer is mir30EcoR1Seq: 5′-TAGCCCCTTGAATTCCGA GGCAGTAGGCA-3′ (SEQ ID NO: 217)).
(§3) The use of shRNA vectors that allow for monitoring of shRNA expression through fluorescent and other reporter genes (e.g. TRMPV) in combination with tet-on competent mouse models facilitates the isolation of pure shRNA expressing cell populations (e.g. by FACS, for TRMPV by sorting of Venus/dsRed double positive cells (FIG. 38). This selection of shRNA expressing cells prior to DNA isolation strongly reduces the background caused by cell populations with insufficient shRNA induction, which are predicted to contain genomic representation of the whole shRNA library without shRNA specific shifts in representation. The final readout is based on the comparison of shRNA representation (i.e. deep sequencing read numbers) before the assay (t0) or from cell populations left without doxycycline treatment (off dox) to those where shRNA were induced and cells subsequently sorted for shRNA expressing cells (on dox). shRNA with inhibitory effects are predicted to loose representation (show less reads) on dox compared to t0 and off dox.
(§4) This pooled is RNAi screening strategy can be applied to rapidly survey inhibitory effects of large pools of shRNAs (˜1000 at a time) in different tet-on competent cancer models and normal control cells (FIG. 39). For example, a pool of 1166 shRNAs targeting 836 predominantly druggable genes associated with MLL fusion proteins in human leukemia and mouse models of MLL/AF9-induced AML (MLL cure library) was analyzed in pooled negative selection screening in tet-on competent MLL/AF9+Nras AML and immortalized murine embryonic fibroblasts (Mef) in parallel. To establish and validate this screening approach, the pool also contained 64 control shRNAs each of which have been previously analyzed for inhibitory effects in both AML cells and Mefs using the same experimental system (FIG. 40).
(§5) After pooling of 1166 experimental and 64 control shRNAs the presence of shRNAs was verified by deep sequencing of shRNAs within the plasmid vector pool (FIG. 41). […]

[2] = test system: tet-on competent MLL/AF9+Nras AML; test: as above; assay type: cell-based, mouse; details: deep sequencing reads, On Dox compared to T0
Description: as §1, §2, §3, §4, §5

Row | Molecule | Fold depletion in Mef [1] | Fold depletion in AML [2]
1 | Plcb2.3742: shRNA, SEQ ID NO: 167 (nucleic acid) TGCTGTTGACAGTGAGCGCAGGGACCTTAATACTCAGATATAGTGAAGCCACAGATGTATATCTGAGTATTAAGGTCCCTTTGCCTACTGCCTCGGA | 2.25 Fold | 10.81 Fold
2 | Plod3.3138: shRNA, SEQ ID NO: 169 (nucleic acid) TGCTGTTGACAGTGAGCGACTCAGCCTCACTTTCAATAAATAGTGAAGCCACAGATGTATTTATTGAAAGTGAGGCTGAGGTGCCTACTGCCTCGGA | 0.71 Fold | 21.28 Fold
3 | Gdi1.1120: shRNA, SEQ ID NO: 129 (nucleic acid) TGCTGTTGACAGTGAGCGCCAACAGGAAGTCAGACATCTATAGTGAAGCCACAGATGTATAGATGTCTGACTTCCTGTTGATGCCTACTGCCTCGGA | 1.98 Fold | 24.81 Fold
4 | Gab3.527: shRNA, SEQ ID NO: 125 (nucleic acid) TGCTGTTGACAGTGAGCGCGACGGAAACACTAATAGTGTATAGTGAAGCCACAGATGTATACACTATTAGTGTTTCCGTCATGCCTACTGCCTCGGA | 0.46 Fold | 10.22 Fold
5 | EG408196.85: shRNA, SEQ ID NO: 116 (nucleic acid) TGCTGTTGACAGTGAGCGCAGCGAGAACCAGTGAGAAATATAGTGAAGCCACAGATGTATATTTCTCACTGGTTCTCGCTTTGCCTACTGCCTCGGA | 0.25 Fold | 20.79 Fold
6 | Acsl1.3559: shRNA, SEQ ID NO: 88 (nucleic acid) TGCTGTTGACAGTGAGCGCCAGCATTTCACTTTACTGCAATAGTGAAGCCACAGATGTATTGCAGTAAAGTGAAATGCTGTTGCCTACTGCCTCGGA | 1.45 Fold | 10.18 Fold
7 | Dio2.2087: shRNA, SEQ ID NO: 112 (nucleic acid) TGCTGTTGACAGTGAGCGCCAGGAATTTGGTTAAATGGAATAGTGAAGCCACAGATGTATTCCATTTAACCAAATTCCTGTTGCCTACTGCCTCGGA | 2.52 Fold | 20.52 Fold
8 | Syt17.721: shRNA, SEQ ID NO: 184 (nucleic acid) TGCTGTTGACAGTGAGCGCCGAGGAGATCATGTCCAAGTATAGTGAAGCCACAGATGTATACTTGGACATGATCTCCTCGTTGCCTACTGCCTCGGA | 0.86 Fold | 10.25 Fold
9 | Kcnh7.2642: shRNA, SEQ ID NO: 134 (nucleic acid) TGCTGTTGACAGTGAGCGCATGGTTCATCTTTATGCCAAATAGTGAAGCCACAGATGTATTTGGCATAAAGATGAACCATTTGCCTACTGCCTCGGA | 0.92 Fold | 10.58 Fold
10 | Slc6a13.1196: shRNA, SEQ ID NO: 182 (nucleic acid) TGCTGTTGACAGTGAGCGACTGGGACTAGATAGCCAGTTTTAGTGAAGCCACAGATGTAAAACTGGCTATCTAGTCCCAGGTGCCTACTGCCTCGGA | 1.52 Fold | 9.77 Fold
11 | Vnn3.345: shRNA, SEQ ID NO: 189 (nucleic acid) TGCTGTTGACAGTGAGCGAACGCCAGAAGATGGAATCTATTAGTGAAGCCACAGATGTAATAGATTCCATCTTCTGGCGTCTGCCTACTGCCTCGGA | 2.59 Fold | 10.19 Fold
12 | Centa1.1387: shRNA, SEQ ID NO: 105 (nucleic acid) TGCTGTTGACAGTGAGCGCCAGAACCTCATTAAAGTTGAATAGTGAAGCCACAGATGTATTCAACTTTAATGAGGTTCTGATGCCTACTGCCTCGGA | 0.77 Fold | 11.44 Fold
13 | F10.1044: shRNA, SEQ ID NO: 117 (nucleic acid) TGCTGTTGACAGTGAGCGACACCATCTTGAATGAGTTCTATAGTGAAGCCACAGATGTATAGAACTCATTCAAGATGGTGCTGCCTACTGCCTCGGA | 1.25 Fold | 10.52 Fold
14 | Flot2.1039: shRNA, SEQ ID NO: 120 (nucleic acid) TGCTGTTGACAGTGAGCGACAAGGTGACATCAGAAGTAAATAGTGAAGCCACAGATGTATTTACTTCTGATGTCACCTTGCTGCCTACTGCCTCGGA | 2.72 Fold | 10.89 Fold
15 | Slc15a3.1086: shRNA, SEQ ID NO: 180 (nucleic acid) TGCTGTTGACAGTGAGCGCCTGGTTCTATTGGAGCATCAATAGTGAAGCCACAGATGTATTGATGCTCCAATAGAACCAGTTGCCTACTGCCTCGGA | 2.32 Fold | 10.29 Fold
16 | EG277089.605: shRNA, SEQ ID NO: 115 (nucleic acid) TGCTGTTGACAGTGAGCGCCTCAATCTCATTGGTGGCTTATAGTGAAGCCACAGATGTATAAGCCACCAATGAGATTGAGATGCCTACTGCCTCGGA | 2.02 Fold | 25.37 Fold
17 | Atp6v0d1.481: shRNA, SEQ ID NO: 93 (nucleic acid) TGCTGTTGACAGTGAGCGACACCAGCGTTCAATAGCTGAATAGTGAAGCCACAGATGTATTCAGCTATTGAACGCTGGTGCTGCCTACTGCCTCGGA | 1.90 Fold | 12.03 Fold
18 | Plod3.2501: shRNA, SEQ ID NO: 168 (nucleic acid) TGCTGTTGACAGTGAGCGAACCGTTGATATCCACATGAAATAGTGAAGCCACAGATGTATTTCATGTGGATATCAACGGTGTGCCTACTGCCTCGGA | 2.62 Fold | 12.30 Fold
19 | Hpgd.1070: shRNA, SEQ ID NO: 132 (nucleic acid) TGCTGTTGACAGTGAGCGCAAACTAGGTTATAACCTATAATAGTGAAGCCACAGATGTATTATAGGTTATAACCTAGTTTTTGCCTACTGCCTCGGA | 1.10 Fold | 10.43 Fold
20 | Park2.2222: shRNA, SEQ ID NO: 158 (nucleic acid) TGCTGTTGACAGTGAGCGCAACAGAGAAAGTGCCTATAAATAGTGAAGCCACAGATGTATTTATAGGCACTTTCTCTGTTATGCCTACTGCCTCGGA | 1.32 Fold | 11.36 Fold
21 | Ncf1.2370: shRNA, SEQ ID NO: 150 (nucleic acid) TGCTGTTGACAGTGAGCGCCAGAAGATCAATGCACATAAATAGTGAAGCCACAGATGTATTTATGTGCATTGATCTTCTGTTGCCTACTGCCTCGGA | 2.33 Fold | 10.06 Fold
22 | Gdi1.2355: shRNA, SEQ ID NO: 130 (nucleic acid) TGCTGTTGACAGTGAGCGACTCTAGTATATTTCACAGAAATAGTGAAGCCACAGATGTATTTCTGTGAAATATACTAGAGCTGCCTACTGCCTCGGA | 2.86 Fold | 9.92 Fold
23 | Trpm4.2813: shRNA, SEQ ID NO: 188 (nucleic acid) TGCTGTTGACAGTGAGCGACAAGATTGTCATAGTGAGCAATAGTGAAGCCACAGATGTATTGCTCACTATGACAATCTTGGTGCCTACTGCCTCGGA | 2.33 Fold | 20.52 Fold
24 | Pgam1.1811: shRNA, SEQ ID NO: 164 (nucleic acid) TGCTGTTGACAGTGAGCGCAAGGAGTGATGTGCAATACTTTAGTGAAGCCACAGATGTAAAGTATTGCACATCACTCCTTTTGCCTACTGCCTCGGA | 0.17 Fold | 20.18 Fold
